A short description of the data set: yeast display, Sf9 membrane polyspecificity reagent, FACS + sequencing; frameworks hold sequencing errors. The method in brief: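 Polyreactivity labels are assigned by the sorting gate from which each nanobody was recovered. The gates were low and high (top ~1%), set on anti-HA fluorescence for expression and streptavidin fluorescence for reagent binding. Before sorting, galactose-induced (36–48 hours) yeast display cells were stained for 1 hour at 4 °C with 10% biotinylated, detergent-solubilized Sf9 membrane reagent.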
For the sequence “QVQLVESGGGLVQAGGSLRLSCAASGSTLKYNAMGWYRQATGKERELVAAISTSGGNTYYADSVKGRFTISRDNAKNTVYLQMNSLKPEDPAVYYFAKVLGYYYYDYDSWGQGTQVTLSS”, the “polyreactivity (PSR sort gate)” value is “low polyreactivity”. As for “QVQLVESGGGLVQAGGSLRLSCAASGSTLKYYTMGWYRQAPGKERELVAAISWSGGRTYYADSVKGRFTISRDNAKNTVYLQMNCLKPEDTAVYYCAKYPGYRSSGRISYEYDYWGQGTQVTVSS”, the “polyreactivity (PSR sort gate)” value was “high polyreactivity”. As for “QVQLVESGGGLVQAGGSLRLSCAASGSTLKYYTMGWYRQAPGKERELVAAISWSGGRTYYADSVKGRFTISRDNAKNTVYLQMNSLKPEDTAVYYCNARRTFPRYDRKYESWGQGTQVTVSS”, the “polyreactivity (PSR sort gate)” value is reported as “high polyreactivity”. Then “QVQLVESGGGLVQAGGSLRLSCAASGSTLNVNAMGWYRQAPGKERELVAAITSGGSTYYADSVKGRFTISRDNAKNTVYLQMNSLKPEDTAVYYCNKRRSWRPTYPFGGSGFYYWGQGTQVTVSS”, with “low polyreactivity”. Then “QVQLVESGGGLVQAGGSLRLSCAASGSTLNYYAMAWYRQAPGKEMELVAAITWSGGSTSYADSVKGRFTISRDNAKNTVYLQMNSLKPEDTAVYYCATDFPTVQLYDTDWLSSDMGYWGQGTQVTVSW”, with “low polyreactivity”. Turning to “QVQLVESGGGLVQAGGSLRLSCAASGSTLNYYAMGWYRQAPGKERELVAAITWSGGSTSYADSVKGRFTISRDNAKNTVYVQMNSLKPEDTAVYYGATDFPTVQLYDTDWLSSDMGYWGQGTQVTVSS”, the “polyreactivity (PSR sort gate)” value is listed as “low polyreactivity”. For “QVQLVESGGGLVQAGGSLRLSCAASGSTLNYYAMGWYRQAPGKEWELVAAITWSGGSTSYADSVKGRFTISRDNAKNTVYLQMNSLKPEDTAVYYCATDFPTVQLYDTDWLSSDMGYWGQGTQVTVSS” the value was “low polyreactivity”; for “QVQLVESGGGLVQAGGSLRLSCAASGSTLPGNTMGWYRQAPGKERELVAAISKSGGTTYYADSVKGRFTISRDYAKNTVYLQMNSLKPEDTAVYYCAAKPWVWVYARYGKHPSYDYWGQGTQVTVSS”, “high polyreactivity”.

As to “QVQLVESGGGLVQAGGSLRLSCAASGSTLPPNAMGWSRQAPGKERELVAAISYSGDSTHYADSVKGRFTISRDNAKNTVYLQMNSLKPEDTAVYYCYASSPGAVPVYDYDYWGQGTQVTVSS”, the “polyreactivity (PSR sort gate)” value was “low polyreactivity”.

With “QVQLVESGGGLVQAGGSLRLSCAASGSTLPRYTMGWYRQAPGKERELVAAISFSGSSTYYADSVKGRFTISRVNAKNTVYLQMNSLKPEDTAVYYCRYGYNYWGQGTQVTVSS”, the “polyreactivity (PSR sort gate)” value is reported as “high polyreactivity”. Then “QVQLVESGGGLVQAGGSLRLSCAASGSTLPTNAMGWYRQAPGKERELVASNDQSGGSTYADSVKGRFTISRDNAKNTVYLQMNSLKPEDTAVYYCNARDSLRYYTYYFEYYRVGYEYWGQGTQVTVSS”, with “high polyreactivity”; and “QVQLVESGGGLVQAGGSLRLSCAASGSTLQSYAMGWYRQAPGKERELVAGIRISGGNTRYADSVKGRFTISRDNAKNTVYLQMNSLKPEDTAVYYCAALTGFYNLRPYGYWGQGTQVTVSS”, with “high polyreactivity”. As for “QVQLVESGGGLVQAGGSLRLSCAASGSTLRGNAMGWYRQAPGKERELVAAISWSGGSTYYADSVKGRFTISRDNAKNTVYLQMNSLKPEDTAVYYRATASPSTRYGRLGDYWGQGTQVTVSS”, the “polyreactivity (PSR sort gate)” value is “low polyreactivity”.

Consider “QVQLVESGGGLVQAGGSLRLSCAASGSTLRPYAMGWYRQAPGKERELVAAISKSGASTYYADSVKGRFTISRDNAQNTVYLQMNSLKPEDTAVYYCNAGRGTGETLYGYDYWGQGTQVTVSS”, for which the “polyreactivity (PSR sort gate)” value is listed as “high polyreactivity”.

For “QVQLVESGGGLVQAGGSLRLSCAASGSTLRPYAMGWYRQAPGKERELVAAISKSGASTYYADSVKGRVTISRDNANNTVYFQMNSLKPEDTAVNYCNAGRGTWETLYGYDYWGQGTQVTVSS”, the “polyreactivity (PSR sort gate)” value is “high polyreactivity”.

As for “QVQLVESGGGLVQAGGSLRLSCAASGSTLRRYAMGWYRQAPGKEMELVAAISGSGDSTYYADSVKGRFTISRDNAKNTVYLQMNSLKPEDTAVYYCNAVYAFNGYDYWGQGTQVTVSS”, the “polyreactivity (PSR sort gate)” value was “low polyreactivity”. For the sequence “QVQLVESGGGLVQAGGSLRLSCAASGSTLRRYAMGWYRQAPGKERELVAAITRGSSTTYADSVKGRFTISRDNAKNTVYLQMNSLKPEDTAVYYCNTYFSRNFDYWGQGTQVTVSS”, the “polyreactivity (PSR sort gate)” value was “high polyreactivity”. “QVQLVESGGGLVQAGGSLRLSCAASGSTLRYYAMGWYRQAPGKEREMVADITSSGNTNYADSVKGRFTISRDNAKNTVYLQMNSLKPEDTAVYYCAGDSANYQWYLSWQKDDYWGQGTQVTVSS”: the “polyreactivity (PSR sort gate)” value was “low polyreactivity”.

Turning to “QVQLVESGGGLVQAGGSLRLSCAASGSTLSIYAMGWYRQAPGKERELVAAISSIGGSTYYADSVKGRFTISRDNAKNTVYLQMNSLKPEDTAVYYCAAELYGGYYYWGQGTQVTVSS”, the “polyreactivity (PSR sort gate)” value is “high polyreactivity”.

For “QVQLVESGGGLVQAGGSLRLSCAASGSTLSIYAMGWYRQAPGKERELVATIRWSAGRTSYADSVKGRFTISRDNAMNTVYLQMNSLKPEDTAVYSCNAVRYRYYFYWTGKSYDYWGQGTQVTVSS”, the “polyreactivity (PSR sort gate)” value was “high polyreactivity”. For “QVQLVESGGGLVQAGGSLRLSCAASGSTLSQNAMGWYRQAPGKEREFVADISGSGDSTYYADSVKGRFTISRDNAKNTVYLQMNSLKPEDTAVYYCATPSPHVGLKWEYDYWGQVTQVTVSS”, the “polyreactivity (PSR sort gate)” value is given as “low polyreactivity”. For the sequence “QVQLVESGGGLVQAGGSLRLSCAASGSTLSRYAMGWYRQAPGKERELVATITRRGGSTFYADSVKGRFTISRDNAKNTVYLQMNSLKPEDTAVYYCAVGRLFWGQGTQVTVSS”, the “polyreactivity (PSR sort gate)” value was “low polyreactivity”. With “QVQLVESGGGLVQAGGSLRLSCAASGSTLSSNAMGWYRQAPGKERELVAAINRRGGTYYADSVKGRFTISRDNAKNTVYLQMNSLKPEDTAVYYCAAASPYHEYDYWGQGTQVTVSS”, the “polyreactivity (PSR sort gate)” value is on record as “low polyreactivity”. For “QVQLVESGGGLVQAGGSLRLSCAASGSTLSVYAMGWYRQAPGKERELVAVISRSGGSTYYADSVKGRFTISRDNAKNTVYLQMNSLKPEDTAVYYCAARGRRTGDYDYWGQGTQVTVSS” the value was “high polyreactivity”.

As for “QVQLVESGGGLVQAGGSLRLSCAASGSTLTWNAMGWYRQAPGKERELVATISYSGSSTYYADSVKGRFTISRDNAKNSVYLQMFSLKPEDTAGYYCNAQELAYGHGFDSWGLGTQVTVSS”, the “polyreactivity (PSR sort gate)” value is listed as “low polyreactivity”. For “QVQLVESGGGLVQAGGSLRLSCAASGSTLVDYAMGWYRQAPGKERELVAAISASGGTTYYADSVKGRFTISRDNAKNTVYLQMNSLKPEDTAVYYCAKYHYYYFPYDYWGQGTQVTVSS” the value was “low polyreactivity”; for “QVQLVESGGGLVQAGGSLRLSCAASGSTLVPNAMGWYRQAPGKERELVATISFSSGRTYYADSVKGRFTISRDNAKNTVYLQMNSLKPEDTAVYYCNARSFGPTESRYDYWGQGTQVTVSS”, “high polyreactivity”. Take “QVQLVESGGGLVQAGGSLRLSCAASGSTLVSNAMGGYRQAAGKERELVAAITSGGSTYYADSVKGRFTISRDNAKNTVYLQMNSRKPEDTAVYYCNADRTRGYQRYDYWGQGTQVTVSS”: the “polyreactivity (PSR sort gate)” value was “high polyreactivity”. Turning to “QVQLVESGGGLVQAGGSLRLSCAASGSTLVSYAMGWYRQSPGKERELVATISWRGGSTYYADSVKGRFTISRDNAKNTVYLQMNSLKPEDTAVYYCAADLWHSQYYYGYEYWGQGTQVTVSS”, the “polyreactivity (PSR sort gate)” value was “low polyreactivity”. For “QVQLVESGGGLVQAGGSLRLSCAASGSTLVTHAMGWYRQAPGKERELVAGISRSGGSTYYADSVKGRFTISRDNAKNTVYLQMNSLKPEDTAVYYCAARNYRYLYRMEYWGQGTQVTVSS” the value was “high polyreactivity”; for “QVQLVESGGGLVQAGGSLRLSCAASGSTLVTNAMGWYRQAPGKERELVAAITFSGGTTYYADSVKGRFTISRDNAKNTVYLQMNSLKPEDTAVYYCAAEIWLEYVGYDYWGQGTQVTVSS”, “high polyreactivity”. For “QVQLVESGGGLVQAGGSLRLSCAASGSTLVTNAMGWYRQAPGKERELVAAITFSGGTTYYADSVTGRFTISRDNAKNTVYVQMNSLKPEDTAVYYCAAEIWLEYVGYDYWGQGTQVTVSS” the value was “high polyreactivity”; for “QVQLVESGGGLVQAGGSLRLSCAASGSTLVTYAMGWYRQAPGKERELVAAISWRGGSTYYADSVKGRFTISRDNAKNTVELQMNSLKPEDTAVYYCNKLRAYKESETYYYWGQGTQVTVSS”, “low polyreactivity”. Then “QVQLVESGGGLVQAGGSLRLSCAASGSTLWSNTMGWYRQAPGKERELVDAISSGGGSTYADSVKGRFTISRDNAKNTVYLQMNSLKPEDTAVYYCAASAYYYRHSSWHRRDYWGQGTQVTVSS”, with “high polyreactivity”; and “QVQLVESGGGLVQAGGSLRLSCAASGSTLWTYAMGWYRQAPGKERELVAAISGGGGSTYYADSVKGRFTISRDNAKNTVYLQMNSLKPEDTAVYYCAAVTWVGWGQRRRDYWGHGTQVTVSS”, with “high polyreactivity”. For “QVQLVESGGGLVQAGGSLRLSCAASGSTLWVYAMGWYRQAPGKERELVAAITQSTGDTHYADSVKGRFTISRDNAKNTVYLQMNSLKPEDTAVYYCAADSYLSVYDPYGYWGQGTQVTVSS”, the “polyreactivity (PSR sort gate)” value is “low polyreactivity”. Regarding “QVQLVESGGGLVQAGGSLRLSCAASGSTLYGYAMGWYRQAPGKVRELVAAISSRAVRTYYADSVKGRFTISRDNAKNTVYLHMNSLKPEDTAVYYCAAKRSYAYEYWGQGTQVTVSS”, the “polyreactivity (PSR sort gate)” value was “high polyreactivity”. For “QVQLVESGGGLVQAGGSLRLSCAASGSTLYKYAMGWYRQSPGKERELVAAISWSGSSTYYADSVKGRFTISRDNAKNTVYLQMNSLKPVDTAVYYCAAYPRPYIGYTDVYVWYEFDYWGQGTQVTVSS” the value was “low polyreactivity”. With “QVQLVESGGGLVQAGGSLRLSCAASGSTLYNNAMGWYRQAPGKERELVAAITRRGGSTYYADSVKGRFTISRDNAKNTVYLQMNSLNPEDTAVYFCAADDSRYASGQFQEEYDYWGLGTQVTVSS”, the “polyreactivity (PSR sort gate)” value is “low polyreactivity”. On to “QVQLVESGGGLVQAGGSLRLSCAASGSTLYRYAMGWYRQAPGKERELVAAISSSGGSTYYADSVKGRFTISRDNAKNTVYLQMNSLKPEDTAVYYCAATSSFYFILYDYWGQGTQVTVSS”, for which the “polyreactivity (PSR sort gate)” value is recorded as “high polyreactivity”.

The values above are taken from the nanobody polyreactivity screen of Harvey et al. (2022).
